Results from paper PMC10762086, “Non-canonical interplay between glutamatergic NMDA and dopamine receptors shapes synaptogenesis” (Nature Communications, 2024).

Biological target: GluN1 subunit-containing NMDAR (GluN1-NMDAR), tagged GluN1 expressed at the surface of hippocampal neurons (UniProt P35439 19-938, Only the defined, expressed GluN1 subunit is built: it carries the D1R interaction through its C1 cassette. The canonical 938-aa form is taken as the C1-containing GluN1-1a; the exact splice form is n)
Experiment: multidimensional spectral single molecule localization microscopy (MS-SMLM; two-colour quantum-dot single-particle tracking); live cultured hippocampal neurons (immature DIV 7-9; mature DIV 15 and above), surface receptors labelled by antibodies against extracellular tags and Qd-655 / Qd-705; 1000 frames of 50 ms (20 Hz), 37 °C; receptors counted as interacting when their distance fell below 100 nm; Koff estimated …
Settings: partners not purified

koff: 13 ± 0.7 s⁻¹
B1: dopamine receptor 1 wild-type (D1R-wt), extracellularly tagged, expressed in hippocampal neurons (receptor, UniProt P18901 1-446, looked up)
chain: MAPNTSTMDEAGLPAERDFSFRILTACFLSLLILSTLLGNTLVCAAVIRFRHLRSKVTNFFVISLAVSDLLVAVLVMPWKAVAEIAGFWPLGPFCNIWVAFDIMCSTASILNLCVISVDRYWAISSPFQYERKMTPKAAFILISVAWTLSVLISFIPVQLSWHKAKPTWPLDGNFTSLEDTEDDNCDTRLSRTYAISSSLISFYIPVAIMIVTYTSIYRIAQKQIRRISALERAAVHAKNCQTTAGNGNPVECAQSESSFKMSFKRETKVLKTLSVIMGVFVCCWLPFFISNCMVPFCGSEETQPFCIDSITFDVFVWFGWANSSLNPIIYAFNADFQKAFSTLLGCYRLCPTTNNAIETVSINNNGAVVFSSHHEPRGSISKDCNLVYLIPHAVGSSEDLKKEEAGGIAKPLEKLSPALSVILDYDTDVSLEKIQPVTHSGQHST
notes: dopamine D1 receptor; also called dopamine D1 receptor; source: cultured rat hippocampal neurons, transfected (calcium phosphate), on live cells; not shown: extracellular tag (GFP or Flag)
